Results reported in the supplement of paper PMC10724198.
± gives the standard deviation of the averaged measurements.

System: Saccharomyces cerevisiae
Test: protein stability index of tFT-peptide fusion (C-terminal peptide) (PSI (0-1 scale)); higher = more stable (slower turnover)
Conditions: temperature: 30 C
Experimental: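 MPS profiling in S. cerevisiae of the yeast C-terminome library: the last 12 aa of each annotated ORF are fused to the C-terminus of a sfGFP-mCherry timer, after a GGGS linker. Cells are FACS-sorted into 8 mCherry/sfGFP bins and deep-sequenced. PSI runs from 0 (unstable) to 1 (stable); wild type and das1Δ backgrounds, two technical replicates each.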

[1] = genetic background: das1 deletion

| Sequence | protein stability index [1] | protein stability index (genetic background: wild type) |
| --- | --- | --- |
| RSTAQRGGYSAV [ATG27 C-terminal 12 aa] | 0.708 ± 0.0086 | 0.679 ± 0.025 |
| GCVKMYKFDLND [MET30 C-terminal 12 aa] | 0.713 ± 0.044 | 0.7322 ± 0.0023 |
| GGPFPYYFNTFC [YKL169C C-terminal 12 aa] | 0.704 ± 0.028 | 0.53 ± 0.027 |
| VSKELRSRDLLD [RPE1 C-terminal 12 aa] | 0.68 ± 0.027 | 0.699 ± 0.0075 |
| NDDSKDEDDIIP [MAL33 C-terminal 12 aa] | 0.6831 ± 0.0019 | 0.731 ± 0.056 |
| QYTQRVGRPNFE [YGR226C C-terminal 12 aa] | 0.7078 ± 0.0012 | 0.674 ± 0.026 |
| TRSSGDDQVFVF [PGA3 C-terminal 12 aa] | 0.707 ± 0.0082 | 0.707 ± 0.012 |
| DDDEEDEIVEVA [HGH1 C-terminal 12 aa] | 0.698 ± 0.033 | 0.6572 ± 0.0019 |
| EERKDALANNIK [CCS1 C-terminal 12 aa] | 0.6794 ± 0.0017 | 0.688 ± 0.07 |
| FSTEYLGLICTY [YLR232W C-terminal 12 aa] | 0.49388 ± 0.0004 | 0.5496 ± 0.0009 |
| TDISGEKNSSKI [RLM1 C-terminal 12 aa] | 0.7039 ± 0.0055 | 0.756 ± 0.031 |
| SIINPSSNGCNK [YNL235C C-terminal 12 aa] | 0.702 ± 0.028 | 0.615 ± 0.018 |
| VEHRYHKSVSRL [YBR012C C-terminal 12 aa] | 0.816 ± 0.046 | 0.759 ± 0.053 |
| SSTTALDALNKE [TGL1 C-terminal 12 aa] | 0.696 ± 0.0083 | 0.684 ± 0.048 |
| EGEHEQVLENFQ [GUT1 C-terminal 12 aa] | 0.702 ± 0.014 | 0.676 ± 0.032 |
| ENVDSPRKSNQL [SLM2 C-terminal 12 aa] | 0.69 ± 0.018 | 0.678 ± 0.014 |
| ENASQLPHPSQK [ZIM17 C-terminal 12 aa] | 0.698 ± 0.024 | 0.691 ± 0.021 |
| LCKEELKYQAIQ [YMR099C C-terminal 12 aa] | 0.701 ± 0.037 | 0.6649 ± 0.0029 |
| FRHNRSNKKLGC [GEX1 C-terminal 12 aa] | 0.725 ± 0.025 | 0.7365 ± 0.0018 |
| SSYNSNVGHIKN [WHI3 C-terminal 12 aa] | 0.705 ± 0.019 | 0.736 ± 0.0042 |
| NVEDEYSYSLTL [VPS68 C-terminal 12 aa] | 0.701 ± 0.0071 | 0.706 ± 0.066 |

| Sequence | protein stability index [1] | protein stability index (genetic background: wild type) |
| --- | --- | --- |
| ALLDPSDTLNFM [RDR1 C-terminal 12 aa] | 0.697 ± 0.024 | 0.704 ± 0.055 |
| VIPHRGKKPVQN [AUS1 C-terminal 12 aa] | 0.68051 ± 0.00019 | 0.681 ± 0.037 |
| DRWLNRKALNKG [BUD21 C-terminal 12 aa] | 0.695 ± 0.031 | 0.676 ± 0.021 |
| RVFEFLEKQKRE [MRPL40 C-terminal 12 aa] | 0.722 ± 0.025 | 0.723 ± 0.028 |
| EDKEIVDGKVLK [TEF4 C-terminal 12 aa] | 0.663 ± 0.016 | 0.674 ± 0.023 |
| PLLLVSHLNFAV [YIR020C-B C-terminal 12 aa] | 0.673 ± 0.0087 | 0.557 ± 0.033 |
| KHVMMDMQQPSQ [MRPS17 C-terminal 12 aa] | 0.699 ± 0.022 | 0.674 ± 0.027 |
| ESYRDDSIEAED [NCR1 C-terminal 12 aa] | 0.6933 ± 0.001 | 0.7157 ± 0.0012 |
| NISNGSSTQDMK [HPR1 C-terminal 12 aa] | 0.703 ± 0.029 | 0.704 ± 0.065 |
| MMGFSNFATSKK [SNU23 C-terminal 12 aa] | 0.728 ± 0.011 | 0.683 ± 0.035 |
| LSKRRTRLINFN [PXL1 C-terminal 12 aa] | 0.727 ± 0.013 | 0.538 ± 0.047 |
| QNLLPAEKFTHN [CTR1 C-terminal 12 aa] | 0.6962 ± 0.0032 | 0.663 ± 0.0075 |
| YLEAFQWLSQYI [SAR1 C-terminal 12 aa] | 0.7969 ± 0.0076 | 0.7631 ± 0.0025 |
| TVIALLVGWIYY [SCS22 C-terminal 12 aa] | 0.241 ± 0.01 | 0.255 ± 0.0075 |
| EELLNQPPEEQI [GPX1 C-terminal 12 aa] | 0.712 ± 0.027 | 0.766 ± 0.093 |
| VKFVYRQRIALV [YLL037W C-terminal 12 aa] | 0.577 ± 0.0095 | 0.195 ± 0.0078 |
| PARESMLHKEIK [ADE12 C-terminal 12 aa] | 0.745 ± 0.011 | 0.668 ± 0.011 |
| GNEPMEKFIQSL [YMR090W C-terminal 12 aa] | 0.694 ± 0.005 | 0.669 ± 0.0072 |
| CVAGAHFESLLD [YNL144W-A C-terminal 12 aa] | 0.702 ± 0.0074 | 0.744 ± 0.03 |
| ESLQKNIKIETK [MUM3 C-terminal 12 aa] | 0.6981 ± 0.005 | 0.671 ± 0.051 |
| DLDFLGSDIEFE [HFM1 C-terminal 12 aa] | 0.718 ± 0.016 | 0.7077 ± 0.002 |

| Sequence | protein stability index [1] | protein stability index (genetic background: wild type) |
| --- | --- | --- |
| EADMKTKLDISD [NBP2 C-terminal 12 aa] | 0.695 ± 0.015 | 0.696 ± 0.023 |
| IYENDPNTKKNN [ERG3 C-terminal 12 aa] | 0.736 ± 0.022 | 0.72 ± 0.049 |
| TVSNETKEARET [SPT14 C-terminal 12 aa] | 0.6843 ± 0.0053 | 0.6715 ± 0.0044 |
| YKLFKFLTRERS [BNA4 C-terminal 12 aa] | 0.7081 ± 0.0051 | 0.657 ± 0.018 |
| KTFSYKRPSTFY [RPL20A C-terminal 12 aa] | 0.6745 ± 0.0049 | 0.732 ± 0.039 |
| MRLLGLTPVERM [YDR341C C-terminal 12 aa] | 0.672 ± 0.00072 | 0.696 ± 0.034 |
| VVVCRLHFSLPV [YKL111C C-terminal 12 aa] | 0.562 ± 0.0059 | 0.57 ± 0.012 |
| WNLQTLAADDAF [RPB11 C-terminal 12 aa] | 0.765 ± 0.03 | 0.729 ± 0.049 |
| DFLTLVQTNSDT [YPL250W-A C-terminal 12 aa] | 0.712 ± 0.0071 | 0.722 ± 0.038 |
| SVHLDQLLDGKE [CSI2 C-terminal 12 aa] | 0.714 ± 0.0086 | 0.669 ± 0.013 |
| KEKSESLQEEIN [YET3 C-terminal 12 aa] | 0.691 ± 0.0081 | 0.71 ± 0.032 |
| GNAEFAASLLFQ [DDI1 C-terminal 12 aa] | 0.7205 ± 0.0066 | 0.7022 ± 0.0025 |
| NVWDWNNWTSAT [GAL11 C-terminal 12 aa] | 0.7485 ± 0.006 | 0.767 ± 0.012 |
| LRIYKNPPLDGP [YJL163C C-terminal 12 aa] | 0.729 ± 0.022 | 0.745 ± 0.017 |
| CFPDDIFEYAVE [GLG1 C-terminal 12 aa] | 0.768 ± 0.015 | 0.76 ± 0.0098 |
| NKHDLHLRPGTY [YDR098C-A C-terminal 12 aa] | 0.66848 ± 3.1e-05 | 0.658 ± 0.007 |
| KKDFNEDDSLFG [VPS55 C-terminal 12 aa] | 0.722 ± 0.013 | 0.694 ± 0.0072 |
| KYGIYLKEKTVA [LYS9 C-terminal 12 aa] | 0.663 ± 0.013 | 0.4895 ± 0.0018 |
| IASKNNWLPLQW [SIW14 C-terminal 12 aa] | 0.73114 ± 0.00013 | 0.732 ± 0.045 |
| DDDGDYFEHDEL [KAR2 C-terminal 12 aa] | 0.688 ± 0.017 | 0.6679 ± 0.00099 |
| KYILAWLRKVLL [YFL012W-A C-terminal 12 aa] | 0.651 ± 0.031 | 0.456 ± 0.013 |

| Sequence | protein stability index [1] | protein stability index (genetic background: wild type) |
| --- | --- | --- |
| NCEPIATTFRAN [MGL2 C-terminal 12 aa] | 0.7086 ± 0.00098 | 0.681 ± 0.018 |
| LSQRVKKEYAAN [COQ21 C-terminal 12 aa] | 0.708 ± 0.024 | 0.685 ± 0.0074 |
| RSIKRPELGLRV [STT3 C-terminal 12 aa] | 0.6814 ± 0.0017 | 0.6862 ± 0.0065 |
| GAIMGAAAFALL [TOS6 C-terminal 12 aa] | 0.699 ± 0.013 | 0.729 ± 0.053 |
| MAHRIKNFRDEL [SIL1 C-terminal 12 aa] | 0.712 ± 0.0079 | 0.672 ± 0.032 |
| EEVETVSEHVKV [DPA10 C-terminal 12 aa] | 0.6781 ± 0.00078 | 0.691 ± 0.038 |
| WKKFLKFSKGSD [HXT17 C-terminal 12 aa] | 0.696 ± 0.0084 | 0.703 ± 0.099 |
| QKRSCFFLANIH [YKL183C-A C-terminal 12 aa] | 0.661 ± 0.01 | 0.608 ± 0.027 |
| DFNSKSKKKNDK [MIN6 C-terminal 12 aa] | 0.697 ± 0.024 | 0.6535 ± 0.0044 |
| EFVVQSLRSRNQ [YFR018C C-terminal 12 aa] | 0.7231 ± 0.0049 | 0.703 ± 0.035 |
| LITTRTVHRSLD [YEL076C-A C-terminal 12 aa] | 0.6963 ± 0.0014 | 0.6572 ± 0.0041 |
| TVFASNSFGVYV [OST5 C-terminal 12 aa] | 0.669 ± 0.02 | 0.709 ± 0.06 |
| CVVGTLGSDLKS [YPR150W C-terminal 12 aa] | 0.7093 ± 0.0042 | 0.697 ± 0.014 |
| FGDNSKHKTDKI [BOI2 C-terminal 12 aa] | 0.712 ± 0.042 | 0.685 ± 0.019 |
| FIFYSILPTNVI [YPR123C C-terminal 12 aa] | 0.594 ± 0.013 | 0.645 ± 0.029 |
| SDIFSFLDETYE [PHO92 C-terminal 12 aa] | 0.7281 ± 0.007 | 0.718 ± 0.02 |
| KSASSSPAPKDT [TRM10 C-terminal 12 aa] | 0.693 ± 0.013 | 0.708 ± 0.011 |
| TALDYVSEKKKN [STE24 C-terminal 12 aa] | 0.679 ± 0.012 | 0.7093 ± 0.0027 |
| RERALKVYKDAM [PHR1 C-terminal 12 aa] | 0.6824 ± 0.004 | 0.657 ± 0.0079 |
